# Measured values from patent US20220162265A1 (University of Washington, published 2022).
# Target: the molecule itself
# Assay: self-assembly into 2D arrays, negative-stain EM and AFM
# Protocol: Samples were applied to glow-discharged EM grids and stained with either uranyl acetate (UA), uranyl formate (UF) or NanoW™ (Nanoprobes, Inc, Yaphank, N.Y., USA) for screening or analysis. Data was collected using a Tecnai T12 equipped with a Gatan Orius CCD. CTF estimation was performed using GCTF (10), and all other image processing steps were completed via Relion™ 2.1 (11). For the analysis in FIG. 2G, 421 2D array segments were picked manually from 42 micrographs, and the resulting 2D class average used as a template for Relion™ autopicking, which yielded 5,823 2D array segments. After subsequent 2D classification and alignment, the dominant 2D class consisted of 1,893 array segments (each approximately 20 nm diameter).
protein,measurement,value
"2D-HP (designed binder, Expressed from pET28b(+) between NdeI and XhoI; also called design 2D-HP; designed 2D assembly 2D-HP) MGSRTMYIRALEQSLREQEELAKRLKELLRELERLQREGSSDRDVKVLLWEIEALVEEIEKLARLQKELVEKLKRQGSGNMYIRALEQSLREQEELAKRLKELLRELERLQREGSSDRDVKVLLWEIEALVEEIEKLARLQKELVEKLKRQD",binding result,binds
